3 molecules from patent US20250085287A1 (ADICET THERAPEUTICS, published 2025) can be followed below.

The target of assay [1] is recombinant human glypican-3 (rhGPC3) (human) (UniProt P51654). The assay is described as follows: BLI; humanized GC33 captured on anti-human IgG-Fc biosensor, antigen as analyte from 100 nM, 1:3 dilutions, global 1:1 fit. A general note: BLI is a label-free optical method that tracks binding on a fibre tip over time.
In assay [2] the target is human GPC3 on tumor cells (membrane-associated GPC3 in FFPE xenograft tissue) (human) (UniProt P51654). The experiment in a line: IHC on hepatocellular carcinoma.
Sequence of human GPC3 on tumor cells (membrane-associated GPC3 in FFPE xenograft tissue) (human) (P51654 25-554 limits assumed): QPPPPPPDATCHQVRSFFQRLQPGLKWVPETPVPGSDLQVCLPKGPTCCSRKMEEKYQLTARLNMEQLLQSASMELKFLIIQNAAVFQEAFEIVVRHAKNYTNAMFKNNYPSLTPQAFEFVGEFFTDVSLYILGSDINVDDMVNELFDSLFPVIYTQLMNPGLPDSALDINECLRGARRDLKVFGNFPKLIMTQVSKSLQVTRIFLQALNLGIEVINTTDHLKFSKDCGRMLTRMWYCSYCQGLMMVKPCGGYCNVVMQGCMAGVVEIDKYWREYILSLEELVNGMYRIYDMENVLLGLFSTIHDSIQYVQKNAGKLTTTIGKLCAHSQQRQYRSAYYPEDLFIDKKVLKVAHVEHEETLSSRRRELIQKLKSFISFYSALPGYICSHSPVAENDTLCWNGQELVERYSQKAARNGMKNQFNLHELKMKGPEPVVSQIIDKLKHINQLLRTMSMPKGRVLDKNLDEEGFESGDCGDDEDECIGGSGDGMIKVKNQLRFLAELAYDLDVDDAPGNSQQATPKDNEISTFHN
The target is the same in assay [3]. The assay is described as follows: IHC on FFPE xenograft tumor tissue, Huh7.
The target is the same in assay [4]. The assay is described as follows: IHC on FFPE xenograft tumor tissue, Hep3B.
Assay [5] has the same target. The assay is described as follows: IHC on FFPE xenograft tumor tissue, HepG2.
For assay [6] the target is unchanged. The experiment in a line: IHC on squamous cell carcinoma of the lung.
Assay [7] has the same target. The experiment in a line: IHC on FFPE xenograft tumor tissue, PP5 (PLC/PRF/5).
Assay [8] has the same target. The experiment in a line: IHC on FFPE xenograft tumor tissue; Hep3B, table row 1.
Assay [9] shares this target. The assay is described as follows: IHC on FFPE xenograft tumor tissue; Hep3B, table row 2.
Assay [10] has the same target. The experiment in a line: IHC on FFPE xenograft tumor tissue; Hep3B, table row 3.
Assay [11] shares this target. The assay is described as follows: IHC on FFPE xenograft tumor tissue; HepG2, table row 4.
Assay [12] has the same target. The experiment in a line: IHC on FFPE xenograft tumor tissue; HepG2, table row 5.
For assay [13] the target is unchanged. The experiment in a line: IHC on FFPE xenograft tumor tissue; HepG2, table row 6.
Assay [14] shares this target. The experiment in a line: IHC (DAB), implanted HepG2 tumor (GPC3hi), 1G12 at 0.5 µg/mL.
The target is the same in assay [15]. The experiment in a line: IHC on FFPE xenograft tumor tissue, cytoplasmic staining; Hep3B, table row 1.
Assay [16] shares this target. The assay is described as follows: IHC on FFPE xenograft tumor tissue, cytoplasmic staining; Hep3B, table row 2.
Assay [17] has the same target. The experiment in a line: IHC on FFPE xenograft tumor tissue, cytoplasmic staining; Hep3B, table row 3.
For assay [18] the target is unchanged. The experiment in a line: IHC on FFPE xenograft tumor tissue, cytoplasmic staining; HepG2.
Assay [19] concerns the target recombinant human glypican-3 (rhGPC3) (human) (UniProt P51654). The experiment in a line: BLI; antibody captured on IgG-Fc capture biosensor, antigen as analyte, global 1:1 fit.
The target in assay [20] is human GPC3 on tumor cells (membrane-associated GPC3 in FFPE xenograft tissue) (human) (UniProt P51654). The experiment in a line: IHC (DAB), implanted PP5 tumor (GPC3lo), bottom row of images, 1G12 at 0.5 µg/mL.
Assay [21] has the same target. The experiment in a line: IHC (DAB), implanted PP5 tumor (GPC3lo), middle row of images, 1G12 at 0.5 µg/mL.
For assay [22], the target named is recombinant human glypican-3 (rhGPC3) (human) (UniProt P51654). The assay is described as follows: BLI; antibody captured on IgG-Fc capture biosensor, antigen as analyte from 100 nM, 1:3 dilutions, global 1:1 fit.
Assay [23] addresses human GPC3 on tumor cells (membrane-associated GPC3 in FFPE xenograft tissue) (human) (UniProt P51654). The assay is described as follows: IHC on FFPE xenograft tumor tissue; HepG2, table row 5 (so in the source); the four percentages of the row add up to 105.
Assay [24] has the same target. The assay is described as follows: IHC on FFPE xenograft tumor tissue; Hep3B, table row 3 (so in the source); does not fit the 90 and the 255 of the same row.
Assay [25] has as its target T1, recombinant human glypican-5 (rhGPC5) (human, UniProt P78333 25-551, limits assumed).
T1 sequence (looked up): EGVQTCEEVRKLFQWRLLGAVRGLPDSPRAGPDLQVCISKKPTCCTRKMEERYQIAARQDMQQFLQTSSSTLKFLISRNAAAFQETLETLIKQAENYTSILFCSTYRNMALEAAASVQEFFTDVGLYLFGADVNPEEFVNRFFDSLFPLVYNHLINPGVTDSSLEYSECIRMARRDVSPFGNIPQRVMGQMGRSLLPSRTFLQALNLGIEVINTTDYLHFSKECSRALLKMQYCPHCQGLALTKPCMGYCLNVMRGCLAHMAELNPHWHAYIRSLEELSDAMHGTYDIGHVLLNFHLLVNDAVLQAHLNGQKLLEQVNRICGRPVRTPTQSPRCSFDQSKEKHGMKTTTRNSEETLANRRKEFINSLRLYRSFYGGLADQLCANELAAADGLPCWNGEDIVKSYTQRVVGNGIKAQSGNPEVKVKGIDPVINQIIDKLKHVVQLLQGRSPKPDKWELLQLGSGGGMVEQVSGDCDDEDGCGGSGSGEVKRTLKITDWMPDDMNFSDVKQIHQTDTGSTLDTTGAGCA
The experiment in a line: western blot, primary antibody 1 ug/mL. On the technique in general: A western blot detects proteins with antibodies after separation by electrophoresis.

Assay [26] concerns the target T2, recombinant human glypican-6 (rhGPC6) (human, UniProt Q9Y625 24-529, limits assumed).
T2 sequence (looked up): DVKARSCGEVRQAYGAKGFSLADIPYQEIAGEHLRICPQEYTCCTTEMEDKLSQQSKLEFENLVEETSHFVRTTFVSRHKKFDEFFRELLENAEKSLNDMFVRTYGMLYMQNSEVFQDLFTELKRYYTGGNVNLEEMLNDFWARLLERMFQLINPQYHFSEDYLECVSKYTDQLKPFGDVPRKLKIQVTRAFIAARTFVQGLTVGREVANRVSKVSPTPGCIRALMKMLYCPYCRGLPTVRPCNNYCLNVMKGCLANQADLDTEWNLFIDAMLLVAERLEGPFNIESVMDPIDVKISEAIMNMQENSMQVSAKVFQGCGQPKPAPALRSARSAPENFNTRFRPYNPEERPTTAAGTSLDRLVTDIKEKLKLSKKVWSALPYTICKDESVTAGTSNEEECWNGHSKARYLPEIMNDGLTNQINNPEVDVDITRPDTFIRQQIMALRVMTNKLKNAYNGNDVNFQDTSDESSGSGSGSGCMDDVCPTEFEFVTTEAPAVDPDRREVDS
The assay is described as follows: western blot, primary antibody 1 ug/mL.

Assay [27] deals with recombinant human glypican-3 (rhGPC3) (human) (UniProt P51654). The experiment in a line: BLI; antibody captured on anti-mouse IgG-Fc biosensor, antigen as analyte, global 1:1 fit.
For assay [28] the target is unchanged. The assay is described as follows: BLI in-tandem cross-competition; buffer only, no saturating antibody (maximal binding reference).
Assay [29] has the same target. The experiment in a line: BLI; antibody captured on anti-mouse IgG-Fc biosensor, antigen as analyte from 100 nM, 1:3 dilutions, global 1:1 fit.
The target is the same in assay [30]. The experiment in a line: BLI in-tandem cross-competition; biotinylated antigen on SA biosensor saturated with 150 nM GC33 (competitor), then 150 nM 204.
Assay [31] shares this target. The experiment in a line: BLI in-tandem cross-competition; biotinylated antigen on SA biosensor saturated with 150 nM 204 (self-blocking), then 150 nM 204.

Usually Kd stands for the equilibrium constant for the complex coming apart. Usually koff stands for the first-order rate constant of dissociation. The kon is the rate constant with which the complex forms.

Sequence of recombinant human glypican-3 (rhGPC3) (human) (P51654 25-559): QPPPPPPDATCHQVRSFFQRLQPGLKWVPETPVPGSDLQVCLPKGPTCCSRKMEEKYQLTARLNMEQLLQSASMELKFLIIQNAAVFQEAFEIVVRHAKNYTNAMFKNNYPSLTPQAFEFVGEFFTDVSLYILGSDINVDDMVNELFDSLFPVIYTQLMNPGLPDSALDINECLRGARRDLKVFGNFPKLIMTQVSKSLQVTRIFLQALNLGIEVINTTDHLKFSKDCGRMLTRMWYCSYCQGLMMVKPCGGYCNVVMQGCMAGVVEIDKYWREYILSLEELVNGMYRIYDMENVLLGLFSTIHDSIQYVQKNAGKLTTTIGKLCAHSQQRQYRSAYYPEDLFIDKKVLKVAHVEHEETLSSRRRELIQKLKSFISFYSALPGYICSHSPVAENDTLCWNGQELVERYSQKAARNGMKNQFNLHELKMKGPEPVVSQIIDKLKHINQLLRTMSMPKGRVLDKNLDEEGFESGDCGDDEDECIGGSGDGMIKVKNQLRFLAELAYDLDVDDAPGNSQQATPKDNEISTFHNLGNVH

On to GC33 anti-GPC3 antibody, for which the dissociation constant Kd in assay [1] stood at 1 nM.
1G12 anti-GPC3 monoclonal antibody: the Membrane-bound GPC3 H-score in assay [2] stood at 110; in assay [3], 80; in [4], 265; in assay [5], 260; in assay [6] it was 90; in [7], 75. Further, the % Tumor Cells Positive - Membranous Staining, intensity 0 in assay [8] stood at 5%; in [9], 0%; in assay [10], 5%; in assay [11], 5%; in assay [12], 5%; in assay [13], 5%. Besides, the % Tumor Cells Positive - Membranous Staining, intensity 1+ is 5% in [8]; 5% in assay [9]; 5% in assay [10]; 20% in assay [11]; 10% in assay [12]; 10% in assay [13]. The % Tumor Cells Positive - Membranous Staining, intensity 2+ was determined as 10% in assay [8]; 15% in assay [9]; 20% in assay [10]; 50% in assay [11]; 45% in assay [12]; 5% in [13]. Besides, the % Tumor Cells Positive - Membranous Staining, intensity 3+ in [8] amounted to 80%; in [9] it was 80%; in [11], 25%; in [13] it was 80%; in assay [23], 45%; in assay [24] it was 20%. Besides, the H-Score (membranous staining) in assay [8] was 265; in [9], 275; in assay [10], 255; in assay [11] it was 195; in assay [12], 220; in assay [13], 260. For the same molecule, the Mod/High Intensity (2/3+) in [8] was 90%; in assay [9], 95%; in assay [10] it was 90%; in assay [11] it was 75%; in [12], 85%; in assay [13], 85%. For the same molecule, the Membrane-associated H-Score is 285 in [14], 90 in [20] and 130 in [21]. The Average Intensity of cytoplasmic staining in [15] was 1 +; in assay [16] it was 1 +; in assay [17] it was 1 +; in [18], 2 +. Further, the koff in [19] was 0.00053 s⁻¹. In addition, the kon in assay [19] is 170000 M⁻¹ s⁻¹. Besides, the Kd in assay [22] amounted to 3 nM.

B1: 204 monoclonal antibody (mouse anti-human GPC3) (antibody, IgG2b, V domains shown)
VH: EVQLQQSGPELVKPGASVKISCKTSGYTFTEYAMHWVKQSHGKSLEWIGGINPNNGVTTYNQRFKGKATLTVDKSSSTAYMELRSLTSEDSAVYYCARGLLWYAYWGQGTLVTVSA
VL: DIKMTQSPSSMYASLGERVTITCKASQDINSYLSWFQQKPGKSPKTLIYRANRLVDGVPSRFSGSGSGQDYSLTISSLEYEDMGIYYCLQYDEFPLTFGAGTKLELK
notes: also called GPC.204
On to B1, for which the binding result in assay [25] and in assay [26] was “no binding” throughout. In addition, the koff in [27] was found to be 0.0021 s⁻¹. Also, the kon in [27] stood at 820000 M⁻¹ s⁻¹. Moreover, the % Binding of Competing Antibody in assay [28] was 100%; in [30], 89.9%; in assay [31] it was 18.2%. The Kd in [29] is 2.5 nM.
